Values of other authors, collected in PMC11299584.

Target: ANGPTL3/8 complex (Homo sapiens) (UniProt Q9Y5C1)
Test: SPR

Sequence of UniProt Q9Y5C1 (Q9Y5C1 17-460, chain 1 of 2): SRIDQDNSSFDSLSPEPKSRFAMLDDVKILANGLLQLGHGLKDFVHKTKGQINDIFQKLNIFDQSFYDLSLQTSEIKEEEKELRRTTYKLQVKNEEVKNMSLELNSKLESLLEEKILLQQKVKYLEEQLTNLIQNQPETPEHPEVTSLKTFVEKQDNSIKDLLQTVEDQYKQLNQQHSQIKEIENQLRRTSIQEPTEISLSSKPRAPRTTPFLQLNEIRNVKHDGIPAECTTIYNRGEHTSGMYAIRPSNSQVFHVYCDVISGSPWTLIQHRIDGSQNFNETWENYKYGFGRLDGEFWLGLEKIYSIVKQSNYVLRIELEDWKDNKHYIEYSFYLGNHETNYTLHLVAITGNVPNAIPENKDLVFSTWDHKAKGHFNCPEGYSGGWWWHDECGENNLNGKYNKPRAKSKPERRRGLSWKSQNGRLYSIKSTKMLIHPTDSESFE
Sequence of UniProt Q9Y5C1 (Q6UXH0 22-198, chain 2 of 2, further chain): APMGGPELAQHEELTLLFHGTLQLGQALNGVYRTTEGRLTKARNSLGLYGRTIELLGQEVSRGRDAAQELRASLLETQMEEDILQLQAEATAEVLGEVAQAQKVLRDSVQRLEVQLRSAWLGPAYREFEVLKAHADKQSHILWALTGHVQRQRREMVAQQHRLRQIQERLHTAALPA

APOA5 (from UniProt Q8C7G5)
Kd: 0.53 nM
